Experimental data reported in US20250152729A1 (CANCER RESEARCH TECHNOLOGY, published 2025).
Residue numbers refer to the chain shown, from its start. Numbers in names are those of the source.

T1: recombinant cynomolgus SEMA4A AviHis10, biotinylated (cynomolgus, UniProt Q9H3S1 32-677 (human entry), biotin on the Avi tag (BirA))
T1 construct: The text says amino acids 32-679 of G7NV79 with C-terminal Avi tag and His10 tag; also called Cyno SEMA4A AviHis10; cynoSEMA4A
T1 chain: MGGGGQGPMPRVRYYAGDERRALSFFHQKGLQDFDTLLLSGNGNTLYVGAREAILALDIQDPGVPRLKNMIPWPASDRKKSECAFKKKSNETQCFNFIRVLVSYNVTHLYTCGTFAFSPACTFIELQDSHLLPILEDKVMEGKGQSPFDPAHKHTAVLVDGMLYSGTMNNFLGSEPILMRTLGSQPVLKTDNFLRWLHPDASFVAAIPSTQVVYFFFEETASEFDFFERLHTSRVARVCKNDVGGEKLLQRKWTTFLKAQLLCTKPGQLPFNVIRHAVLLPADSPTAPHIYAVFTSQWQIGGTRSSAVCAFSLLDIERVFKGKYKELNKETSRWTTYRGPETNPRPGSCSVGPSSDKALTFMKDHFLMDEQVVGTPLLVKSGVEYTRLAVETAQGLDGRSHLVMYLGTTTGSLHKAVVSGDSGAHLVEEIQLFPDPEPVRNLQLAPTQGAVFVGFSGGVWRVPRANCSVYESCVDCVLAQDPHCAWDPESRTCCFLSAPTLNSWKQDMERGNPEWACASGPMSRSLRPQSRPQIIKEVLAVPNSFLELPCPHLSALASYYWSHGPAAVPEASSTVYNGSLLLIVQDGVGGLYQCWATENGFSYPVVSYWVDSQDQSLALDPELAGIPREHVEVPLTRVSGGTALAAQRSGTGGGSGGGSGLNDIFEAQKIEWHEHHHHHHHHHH

T2: recombinant human SEMA4A AviHis10, biotinylated (human, UniProt Q9H3S1 33-683, biotin on the Avi tag (BirA))
T2 construct: The text says amino acids 33-683 of Q9H3S1 with C-terminal Avi tag and His10 tag; also called avi-SEMA4A-His10
T2 sequence: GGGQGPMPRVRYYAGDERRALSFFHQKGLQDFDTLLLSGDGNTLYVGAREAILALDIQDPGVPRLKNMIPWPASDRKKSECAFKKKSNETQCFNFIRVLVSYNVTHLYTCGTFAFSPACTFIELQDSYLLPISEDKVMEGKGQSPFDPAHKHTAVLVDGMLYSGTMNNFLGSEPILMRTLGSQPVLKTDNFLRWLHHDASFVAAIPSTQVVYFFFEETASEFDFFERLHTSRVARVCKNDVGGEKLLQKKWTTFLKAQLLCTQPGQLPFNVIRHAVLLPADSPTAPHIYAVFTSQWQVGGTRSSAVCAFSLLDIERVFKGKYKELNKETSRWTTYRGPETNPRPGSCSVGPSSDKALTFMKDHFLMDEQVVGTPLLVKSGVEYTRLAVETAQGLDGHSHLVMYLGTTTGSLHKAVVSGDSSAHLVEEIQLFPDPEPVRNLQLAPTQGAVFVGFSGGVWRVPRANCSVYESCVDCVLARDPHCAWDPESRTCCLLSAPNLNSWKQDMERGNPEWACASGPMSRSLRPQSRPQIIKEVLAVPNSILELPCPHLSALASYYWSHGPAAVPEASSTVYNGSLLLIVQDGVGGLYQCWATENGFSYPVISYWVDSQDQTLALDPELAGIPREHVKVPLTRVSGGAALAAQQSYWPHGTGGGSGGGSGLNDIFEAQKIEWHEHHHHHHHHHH

B1: mouse 5E3 expressed as human IgG1 Alya (antibody, V domains shown)
VH: QVQLQQPGAELVMPGASVKMSCKASGYTFTDYWMHWVKQRPGQGLEWIGAIDTSDSYTSYNQKFKGKATLTVDESSSTAYMQLSSLTSEDSAVYYCARDYGNFYYYAMDYWGQGTSVTVSS
VL: QAVVTQESALTTSPGETVTLTCRSSTGAVTTSNYANWVQEKPDHLFTGLIGGTNNRAPGVPARFSGSLIGDKAALTITGAQTEDEAIYFCALWYSNHWVFGGGTKLTVL
notes: Mouse variable domains on human IgG1 Alya constant (pEU1.22; 239iCys and S442C, EU numbering); purified, unconjugated; also called 5E3 IgG1 Alya
B2: C0120914 human Alya IgG1 (antibody, V domains shown)
VH: QVQLQESGPGLVKPSETLSLTCTVSGGSVSSGRYDWSWIRQPPGKGLEWIGHIYYTGITDYNPSLRSRVTISADKPKNQFSLKLNSVTAADTAVYYCARGPFFDPWGQGTMVTVSS
VL: QSVLTQPPSVSVAPGQTASLTCGANNIGSKSVQWYQQKPGQAPVLVVYDGSDRPSGIPDRFSGSSSENTATLTISRVEAGDEADYYCQLWDSVTDRPVFGGGTKVTVL
notes: Fully human, phage display derived; human IgG1 Alya constant (239iCys, S442C, EU); unconjugated
B3: C0120905 human Alya IgG1 (antibody, V domains shown)
VH: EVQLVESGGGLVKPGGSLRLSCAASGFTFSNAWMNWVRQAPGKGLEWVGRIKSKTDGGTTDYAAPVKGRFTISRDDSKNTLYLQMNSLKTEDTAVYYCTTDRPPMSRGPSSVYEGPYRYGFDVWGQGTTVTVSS
VL: NFMLTQPHSVSESPGKTVTISCTGSGGNIVDNFVQWHQQRPGSAPRTVIYEDDQRPSGVPDRFSASVDSSSNSGTLSISGLKTEDEADYYCQSYDGANRWVFGGGTKLTVL
notes: as for B2
B4: C0120917 human Alya IgG1 (antibody, V domains shown)
VH: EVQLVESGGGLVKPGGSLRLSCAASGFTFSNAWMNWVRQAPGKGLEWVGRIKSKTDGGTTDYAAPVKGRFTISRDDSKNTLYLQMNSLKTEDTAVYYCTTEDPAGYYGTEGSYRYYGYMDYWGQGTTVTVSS
VL: NFMLTQPHSVSESPGKTVTISCTASGDTLDNKYVNWYQVRPGSAPATLIFHYEERDSGVPDRFSGSFDASSNSASLTISGLQTADEADYFCQSYDSKRDNLVVFGGGTKVTVL
notes: as for B2
B5: C0120918 human Alya IgG1 (antibody, V domains shown)
VH: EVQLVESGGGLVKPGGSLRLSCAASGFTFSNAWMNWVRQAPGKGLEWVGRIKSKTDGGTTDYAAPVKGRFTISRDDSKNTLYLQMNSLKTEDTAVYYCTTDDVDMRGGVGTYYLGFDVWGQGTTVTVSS
VL: SYELTQPPSVSVSPGQTARITCSGDALPKQYAYWYQQKPGQAPVLVIYKDSERPSGIPERFSGSSSGTTVTLTISGVQAEDEADYYCQSADSSGTWVFGGGTKVTVL
notes: as for B2
B6: 5Hg1-5Lg1 human Alya IgG1 (antibody, V domains shown)
VH: QVQLVQSGAEVKKPGASVKVSCKASGYTFTDYWMHWVRQAPGQGLEWMGAIDTSDSYTSYNQKFKGRVTMTRDTSTSTVYMELSSLRSEDTAVYYCARDYGNFYYYAMDYWGQGTLVTVSS
VL: QAVVTQEPSLTVSPGGTVTLTCRSSTGAVTTSNYANWFQQKPGQAPRTLIYGTNNRAPWTPARFSGSLLGGKAALTLSGAQPEDEAEYYCALWYSNHWVFGGGTKLTVL
notes: Humanised 5E3; human IgG1 Alya constant (239iCys, S442C, EU), lambda light chain; purified, unconjugated
B7: 5Hg2-5Lg2 human Alya IgG1 (antibody, V domains shown)
VH: B6 VH with G44R, M70I, T76A, V79A
VL: B6 VL with S78L
notes: as for B6
B8: C0120903 human Alya IgG1 (antibody, V domains shown)
VH: EVQLVQSGAEVKKPGSSMKVSCKASGGTFNSYTINWVRQAPGQGLEWVGGFIPIFGTADYAQKFHGRVAITADESMSTAYMELSSLRSEDTAVYYCARAPLGSEPFDYWGQGTMVTVSS
VL: SYVLTQPPSVSVAPGQTARITCGGNNIGSKSVHWYQQKPGQAPVLVVYDDSDRPSGIPERFSGSNSGNTATLTISRVEAGDEADYYCQVWDSSSDHLVFGGGTKLTVL
notes: as for B2
B9: C0120906 human Alya IgG1 (antibody, V domains shown)
VH: EVQLVQSGPEVKKPGASVKISCKASGYKLNDPGVHGVSWVRQAPGQGLEWMGWISTLNGDTRYAQKFQGRVTMATDSSTSTIYMDLRSLKSDDTALYYCARDDYTAIFDFWGRGTLVTVSS
VL: QSVLTQPPSVSVAPGQTASITCGGSNIGSQSVHWYQQKPGQAPVLVVYDDSDRPSGIPERFSGSKSGNTASLILSRVEAGDEADYYCQVWDSSTDHHVFGTGTKVTVL
notes: as for B2

Assays:
[1] = molecular target: T1, recombinant cynomolgus SEMA4A AviHis10, …; experiment: BLI (OctetRED), biotinylated SEMA4A on streptavidin tip, IgG as analyte, 1:1 model; KD(observed) IgG
Method: (§1) An Octet Kinetics buffer (PBS containing 0.01% (v/v) BSA and 0.002% (v/v) Tween20) is typically used as the diluent buffer for the analyte samples and as the flow buffer during the dissociation phase. The experimental data is recorded as shift in interference pattern (nm) over time, which is directly proportional to the optical thickness at the biosensor tip, which in turn is an approximate measure of the mass of analyte bound. The proprietary Octet Data Analysis software package can then be used to process data and fit binding models to the data sets. Returned association (ka, M-1 s-1) and dissociation (kd, s-1) rate constants allow calculation of dissociation (KD, M) affinity constants.
(§2) The affinity of binding between the analytes (humanised and phage display derived IgGs as human Alya IgG1s and Fabs) and human SEMA4A and cynomolgus SEMA4A, was estimated using assays in which the biotinylated SEMA4A antigen was captured on a streptavidin sensor tip. A fresh sensor tip was used for each measurement and no regeneration was used. A series of dilutions of the lead Fabs and human Alya IgG1s (3.25-240 nM) were individually placed in contact with the ligand surface for a sufficient amount of time to observe sensorgrams that could be fitted to an appropriate binding model with confidence (typically 5 minutes), followed by an appropriate length of dissociation time (typically 10 minutes). Blank reference (0 nM analyte) data were subtracted from each dataset to reduce the impact of any buffer artefacts or non-specific binding effects. A 1:1 binding model was then fitted simultaneously to the data from each analyte titration using the Octet Evaluation software (Table 8).

[2] = molecular target: T2, recombinant human SEMA4A AviHis10, …; experiment: as above
Method: as §1, §2

Row | Binder | Kd [1] [nM] | Kd [2] [nM]
1 | B1 | ≤ 1 | –
2 | B2 | 97 | 21
3 | B3 | 9 | 10
4 | B4 | 6 | 14
5 | B5 | 9 | 9
6 | B6 | – | ≤ 2
7 | B7 | – | ≤ 2
8 | B8 | 20 | 6
9 | B9 | 2 | 11
